{
  "source": "paper PMC9668089",
  "molecular_target": "p170, truncated ORF2-encoded protein of aa 439-608 from hepatitis E virus CCJD-517 (hepatitis E virus CCJD-517 (HEV-3))",
  "assay": "non-reducing SDS-PAGE",
  "data": [
    {"substance": "p170, truncated ORF2-encoded protein of aa 439-608 from hepatitis E virus CCJD-517 (domain or fragment)", "values": [
      {"measurement": "stoichiometry N", "result": 2}
    ]}
  ]
}
